{
  "source": "patent US9725517B2",
  "about": "“Humanized monoclonal antibodies against the extracellular domain of human death receptor 5” (Institute of Basic Medical Sciences, Chinese Academy of …, priority 2012, dated 2017)",
  "tested_on": "Jurkat, HCT116, BEL-7402 and H460 cancer cells",
  "test": "CCK-8 cytotoxicity assay of killing cancer cells",
  "format": "cell-based, human",
  "details": "summary statement; leukemia, liver cancer, colon cancer, lung cancer cells",
  "experimental": "The assay was carried out in 96-well cell culture plates. Various concentrations (0, 0.5, 1, 2, 4, 8 μg/ml) of humanized anti-human DR5 monoclonal antibodies AD10, AD14 and AD15 were separately added into to human T-cell lymphocytic leukemia cells Jurkat (ATCC, TIB-152), colon cancer cells HCT116 (ATCC, CCL-247), liver cancer cells BEL-7402 (cell bank, Shanghai Institutes for Biological Sciences of Chinese Academy of Sciences, TCHu 10) and non-small cell lung cancer cells H460 (ATCC, HTB-177) in logarithmic growth phase, for 24 hours; parental murine anti-human DR5 monoclonal antibody (AD5-10) and human-mouse chimeric antibody zaptuximab were used as controls. According to the protocol of CCK-8 cytotoxicity detection kit (Dojindo, Gaithersburg, Md.), CCK-8 agents were added and incubated for 2 to 4 hours, the OD value was measured at 450 nm wavelength in micro-ELISA plate detector. The OD value in cell-free well was set as blank control “0”. Cell survival rate=OD value in treated well/OD value in untreated well.",
  "data": [
    {"molecule": "zaptuzumab: intact humanized monoclonal antibody against DR5 expressed in HEK293 cells and purified by affinity chromatography (antibody, chains of the INN, looked up, V domains shown) VH: QVQLVQSGSELKKPGASVKVSCKASGYTFTDFSMNWVRQAPGQGLEWMGWINTETGEPTYADDFKGRFVFSLDTSVSTAYLQISSLKAEDTAVYYCARIDYWGQGTTVTVSS VL: DIVMTQSPLSLPVTPGEPASISCRSSQSLVHSNGNTYLHWYLQKPGQSPQLLIYKVSNRFSGVPDRFSGSGSGTDFTLKISRVEAEDVGVYYCFQSTHVPHTFGQGTKLEIK", "values": [
      {"measurement": "killing activity to cancer cells in vitro", "value": "strong killing activity to various cancer cells"}
    ]}
  ]
}
